According to US20230250178A1 (published 2023):

Key:
murine CCR8 [1] = target: T1, murine CCR8 (mouse, UniProt P56484 1-353); assay: FACS, murine iTregs
T1 construct: also called mCCR8; P56484_CCR8_MOUSE
T1 sequence: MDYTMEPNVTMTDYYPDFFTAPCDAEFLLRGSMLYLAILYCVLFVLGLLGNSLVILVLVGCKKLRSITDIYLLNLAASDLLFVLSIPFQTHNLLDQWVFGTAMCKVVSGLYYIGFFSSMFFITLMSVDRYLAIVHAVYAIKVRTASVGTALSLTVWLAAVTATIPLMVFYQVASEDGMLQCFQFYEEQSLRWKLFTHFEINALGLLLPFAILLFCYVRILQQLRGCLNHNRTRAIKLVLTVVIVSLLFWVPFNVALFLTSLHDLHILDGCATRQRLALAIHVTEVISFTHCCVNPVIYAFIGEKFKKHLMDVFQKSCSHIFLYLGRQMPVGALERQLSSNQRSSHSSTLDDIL

[2] = target: T2, TPP-19951, His6-tagged murine CCR8 TRD fused with human serum albumin (mouse; human, not fully specified); assay: SPR, IgG captured, TRD-HSA analyte
T2 construct: non-sulfated TRD; also called CCR8-HSA fusion protein (mouse); not shown: human serum albumin (HSA), C-terminal fusion partner
T2 chain: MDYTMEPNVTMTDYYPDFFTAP
Procedure: IgGs were captured using anti-human Fc IgGs covalently amine coupled to a CM5 sensor chip. […] The respective CCR8-HSA fusion protein was used as analyte with a concentration range of 1.56-200 nM in multicycle kinetics mode. Obtained sensorgrams were fitted to a 1:1 Langmuir binding model.

cynomolgus CCR8 = target: T3, cynomolgus CCR8 (cynomolgus, UniProt O97665 1-356 (rhesus entry)); assay: FACS
T3 construct: also called cynoCCR8; G7NYJ2_CCR8_MACFA
T3 sequence (O97665 other isoform, or with tags, fused parts or gaps): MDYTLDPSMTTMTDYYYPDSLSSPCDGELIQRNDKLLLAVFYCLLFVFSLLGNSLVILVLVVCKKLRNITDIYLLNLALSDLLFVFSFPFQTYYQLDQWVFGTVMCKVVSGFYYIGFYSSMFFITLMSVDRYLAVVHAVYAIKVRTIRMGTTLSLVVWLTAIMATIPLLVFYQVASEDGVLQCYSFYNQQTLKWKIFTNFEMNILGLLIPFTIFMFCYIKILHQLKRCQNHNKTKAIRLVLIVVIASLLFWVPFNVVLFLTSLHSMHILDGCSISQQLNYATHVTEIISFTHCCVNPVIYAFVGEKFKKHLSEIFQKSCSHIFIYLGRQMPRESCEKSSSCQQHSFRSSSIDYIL

human CCR8 = target: T4, human CCR8 (human, UniProt P51685 1-355); assay: FACS
T4 construct: also called hCCR8; P51685_CCR8_HUMAN

murine CCR8 [3] = target: T1, murine CCR8; assay: FACS, CHO-mCCR8
HSA alone = target: T5, HSA alone (human, UniProt P02768 25-609); assay: SPR, IgG captured
T5 construct: control analyte; also called human serum albumin

- EC50 (murine CCR8 [1]): 13.2 nM
- Kd [2]: 520 nM
- koff [2]: 0.0011 s⁻¹
- kon [2]: 2200 M⁻¹ s⁻¹
- binding result (cynomolgus CCR8): no binding
- binding result (human CCR8): no binding
- EC50 (murine CCR8 [3]): 3 nM
- binding result (HSA alone): no binding
B1: TPP-14099 (antibody, human IgG1, lambda, V domains shown)
VH: EVQLLESGGGLVQPGGSLRLSCAASGFTFSDYGVHWVRQAPGKGLEWVSGVSWNGSRTHYADSVKGRFTISRDNSKNTLYLQMNSLRAEDTAVYYCVTRGAWGQGTLVTVSS
VL: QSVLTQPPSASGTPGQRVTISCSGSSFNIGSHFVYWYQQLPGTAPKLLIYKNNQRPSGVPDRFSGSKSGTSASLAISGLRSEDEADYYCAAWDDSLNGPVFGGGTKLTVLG
notes: anti-murine CCR8, human IgG1 lambda; also called 497A-M005-F02-hIgG1Lambda
